B1: Hammerhead Ribozyme (parent)
chain: ACCGGAUGUGCUUUCCGGUCUGAUGAGUCCGUGAGGACGAAACAG

Variants of: B1
Assay: self-cleavage, relative activity (ratio to wild type); higher = more cleavage; co-transcriptional

Variant | self-cleavage
AUCGGAUGUGCUUUCCGGUCUGAUGAGUCCGUGAGGACGAAACAA [C2U G45A] | 0.873
ACUGGAUGUGCUUUCCGGUCUGAUGAGUCCGUGAGGAAGAAACAG [C3U C38A] | 0.577
ACCGGAUGCGCUUUCCCGUCUGAUGAGUCCGUGAGGACGAAACAG [U9C G17C] | 0.354
ACCGGAUGCGCUUUCCGGUCUGAUGAGUCCGUGAGGUCGAAACAG [U9C A37U] | 0.666
ACCGGAUGUGCUUUCCGGUGUGAUGAGUCCGUGAGGACGAAACAC [C20G G45C] | 0.302
ACCGGAUGUGCUUUCCGGGCUGAUGAAUCCGUGAGGACGAAACAG [U19G G27A] | 0.301
ACCGGAUGUGCAUUCCGGUCUGAUGAGUCCGUGAGGACGAUACAG [U12A A41U] | 0.388
ACCGGAUGUGCUUUCCGGUCUGAUGAGACCGUGAGGACGAAACUG [U28A A44U] | 0.402
ACCGGAUGUGCUUUGCGGUCUGAUGAGUCCGUGAGGACGAAACAA [C15G G45A] | 0.446
AACGGAUGUGCUUUCCGUUCUGAUGAGUCCGUGAGGACGAAACAG [C2A G18U] | 1.21
ACCGGAUGUGUUUUCCGGUCUGAUGAGUCCAUGAGGACGAAACAG [C11U G31A] | 1.13
ACCGGAUGUCCUUUCCGGUCCGAUGAGUCCGUGAGGACGAAACAG [G10C U21C] | 0.673
ACCGGAUGUGCUUUCCGGUCUGAUGAGUCCGUGGGGACGAAUCAG [A34G A42U] | 0.329
ACCUGAUGUGCUUUCCGGUCUGAUGAGUCCGUUAGGACGAAACAG [G4U G33U] | 0.576
ACCUGAUGUGCUUUCCGGUCUGAUGAGUCCGUAAGGACGAAACAG [G4U G33A] | 0.608
ACCGGAUGUGCUUUCCGGUCUGAUGAGUCCCUGAGGACGAAGCAG [G31C A42G] | 0.232
ACCGGAUGUUCUUUCCGGUCUGAUGAGUCCGUGAGGACGAAACAC [G10U G45C] | 0.828
ACCGGAUGUGCAUUCCGGUCUGAUGAGUCCGUGAGCACGAAACAG [U12A G36C] | 0.758
ACCGGAUGUGCUUUCAUGUCUGAUGAGUCCGUGAGGACGAAACAG [C16A G17U] | 0.325

Variant | self-cleavage
ACCGGAUGUGCUUUCCGGUCUGAGGAGUCCGCGAGGACGAAACAG [U24G U32C] | 0.858
ACCGCAUGUGCUUUCCGGUCUGAUGAGUCCGUGAGGACGAAGCAG [G5C A42G] | 0.24
ACCGGAUGUGGUUUCCGGUCUGAUAAGUCCGUGAGGACGAAACAG [C11G G25A] | 0.288
ACCGGAUGUGCUUUUCGGUCGGAUGAGUCCGUGAGGACGAAACAG [C15U U21G] | 0.859
ACCGUAUGUGCUUUCCGGUCUGAUGAGUCCGUGAGGUCGAAACAG [G5U A37U] | 0.417
ACCGCAUGUGCUUUCCGGUCUGGUGAGUCCGUGAGGACGAAACAG [G5C A23G] | 0.324
ACCGGAUGUGCUUUCCGGUCUGAUGAGUCCGUGAGGACGAAAGUG [C43G A44U] | 0.359
ACCCGAUGUGCUUUCCGGUCUGAUGAGUCCGUGAGGACGAAAGAG [G4C C43G] | 0.315
ACCGGAUGUGCUUUCCGCUCUGAUGAGUCCGUGAGGAUGAAACAG [G18C C38U] | 0.453
ACCGAAUGUGCUUUCCGGUCUGAGGAGUCCGUGAGGACGAAACAG [G5A U24G] | 0.965
ACCGGAUGUGCUUUCCGGUCUGAUGAGUCCGUGAGGCCGAAACAC [A37C G45C] | 0.337
ACCGGAGGUGCUUUCCGAUCUGAUGAGUCCGUGAGGACGAAACAG [U7G G18A] | 0.807
ACCGGAUGUGCUUUCCAGUCUGAUGAGCCCGUGAGGACGAAACAG [G17A U28C] | 0.331
ACCGGAUGUGCUUUCCGGUCUAAUGACUCCGUGAGGACGAAACAG [G22A G27C] | 0.39
ACCGGAUGUACUUUCCGGUCUGGUGAGUCCGUGAGGACGAAACAG [G10A A23G] | 0.34
ACCGGAUGUGCUUUCCGGUCUGAUGAGUCCGUGAGGUAGAAACAG [A37U C38A] | 0.693
ACCGGAUGUGCUUUCCGGUCUGAUGAGUUCGCGAGGACGAAACAG [C29U U32C] | 0.843
ACCGGAUGUGCCUUCUGGUCUGAUGAGUCCGUGAGGACGAAACAG [U12C C16U] | 0.878
ACCGGAUGUGCCGUCCGGUCUGAUGAGUCCGUGAGGACGAAACAG [U12C U13G] | 0.964

Variant | self-cleavage
ACGGGAUGUGCUUUCCGGUCUGAUGAGUCCGUGAGGAGGAAACAG [C3G C38G] | 0.279
ACCGGAUGUACUUUCCGGUCUGAUUAGUCCGUGAGGACGAAACAG [G10A G25U] | 0.345
ACCGGAAGUGCUUUCCGAUCUGAUGAGUCCGUGAGGACGAAACAG [U7A G18A] | 0.539
ACCCGAUGUGCUUUCCGGUCUGAUGAGUCCUUGAGGACGAAACAG [G4C G31U] | 0.748
ACCGGAUGUGCUUUCCGGUCUGAUGAGUCCAUCAGGACGAAACAG [G31A G33C] | 0.767
ACCGGAUGAGCUUUCCGGUCUGAUGACUCCGUGAGGACGAAACAG [U9A G27C] | 0.609
ACCGGAUGUGCUUUCCGGUCUUAUGAGUUCGUGAGGACGAAACAG [G22U C29U] | 0.251
ACCGGAUGUGCUUUCCGGUCUGAUGAGUCCGUGAGGACGAGACAC [A41G G45C] | 0.402
ACCGGAUGGGCUUUCCGGUCUGAGGAGUCCGUGAGGACGAAACAG [U9G U24G] | 0.671
ACCGGAUGUGCUUUCCGGUUUGAUGAGUCUGUGAGGACGAAACAG [C20U C30U] | 0.594
ACCGGAUGUGCUUUCGGGUCUGAUGAGUCCGUGAGGACGACACAG [C16G A41C] | 0.376
ACCGGAUGUGCUUUCCGGUCCGAUGAGUGCGUGAGGACGAAACAG [U21C C29G] | 0.507
CCCGGUUGUGCUUUCCGGUCUGAUGAGUCCGUGAGGACGAAACAG [A1C A6U] | 0.381
ACCGGAUGUGCUUUCCGGUCUGAUGAGUCCGUGAGGAAGAAACAA [C38A G45A] | 0.464
CCCGGAUGUGUUUUCCGGUCUGAUGAGUCCGUGAGGACGAAACAG [A1C C11U] | 0.411
ACCGGAUGUUCUUUCCGGUCUGAUGAGUCCGUGAGGACGAAUCAG [G10U A42U] | 0.304
ACCGGAUGUUCUUUCCGGUCUGAUGAGUCCGUGAGGACGAACCAG [G10U A42C] | 0.45
ACCGGAUGUGCUUUCGGGGCUGAUGAGUCCGUGAGGACGAAACAG [C16G U19G] | 0.33
ACCGGAUGUGCUUUCCGGUCAGAUGAGUCCAUGAGGACGAAACAG [U21A G31A] | 0.634
